US6512102

Sequence of GSK3 (huGSK3myc), P49841 (P49841 whole entry, looked up): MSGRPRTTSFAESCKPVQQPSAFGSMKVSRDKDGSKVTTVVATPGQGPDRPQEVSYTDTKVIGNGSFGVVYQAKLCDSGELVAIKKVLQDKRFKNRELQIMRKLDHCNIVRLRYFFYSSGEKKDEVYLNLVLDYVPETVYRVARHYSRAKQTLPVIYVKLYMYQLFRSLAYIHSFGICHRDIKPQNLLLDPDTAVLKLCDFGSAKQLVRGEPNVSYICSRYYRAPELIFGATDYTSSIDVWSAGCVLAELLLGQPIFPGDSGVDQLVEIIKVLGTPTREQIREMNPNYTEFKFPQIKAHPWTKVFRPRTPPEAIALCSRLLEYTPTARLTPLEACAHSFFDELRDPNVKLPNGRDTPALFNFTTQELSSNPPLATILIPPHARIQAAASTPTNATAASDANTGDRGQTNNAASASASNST
Sequence of β-catenin (P35222 2-781): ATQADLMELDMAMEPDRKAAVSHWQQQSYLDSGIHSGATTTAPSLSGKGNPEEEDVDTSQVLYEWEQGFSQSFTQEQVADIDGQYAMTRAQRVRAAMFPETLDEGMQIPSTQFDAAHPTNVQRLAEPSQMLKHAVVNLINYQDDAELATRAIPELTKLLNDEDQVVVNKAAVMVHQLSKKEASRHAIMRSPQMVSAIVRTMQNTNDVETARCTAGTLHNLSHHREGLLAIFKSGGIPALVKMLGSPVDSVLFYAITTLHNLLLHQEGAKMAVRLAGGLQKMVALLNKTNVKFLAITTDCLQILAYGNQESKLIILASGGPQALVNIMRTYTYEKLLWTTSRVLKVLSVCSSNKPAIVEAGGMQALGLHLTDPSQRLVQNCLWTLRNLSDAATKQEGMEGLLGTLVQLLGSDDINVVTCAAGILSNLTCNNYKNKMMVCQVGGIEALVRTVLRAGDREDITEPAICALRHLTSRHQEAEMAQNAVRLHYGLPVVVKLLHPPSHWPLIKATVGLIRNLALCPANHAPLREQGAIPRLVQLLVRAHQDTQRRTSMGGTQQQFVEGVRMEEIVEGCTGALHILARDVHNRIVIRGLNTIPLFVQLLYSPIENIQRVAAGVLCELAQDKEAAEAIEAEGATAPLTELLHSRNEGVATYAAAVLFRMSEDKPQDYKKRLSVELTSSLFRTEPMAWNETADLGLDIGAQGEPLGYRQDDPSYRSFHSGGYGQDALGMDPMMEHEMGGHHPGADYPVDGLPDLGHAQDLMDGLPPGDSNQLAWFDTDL

Protein	in vitro phosphorylation (β-catenin)	in vitro kinase assay (phosphorylation of GSK3) (GSK3 (huGSK3myc), P49841)	phosphorylation (Axin)
mouse casein kinase I epsilon, HA-tagged (CKIε-HA) (protein) MELRVGNKYRLGRKIGSGSFGDIYLGANIASGEEVAIKLECVKTKHPQLHIESKFYKMMQGGVGIPSIKWCGAEGDYNVMVMELLGPSLEDLFNFCSRKFSLKTVLLLADQMISRIEYIHSKNFIHRDVKPDNFLMGLGKKGNLVYIIDFGLAKKYRDARTHQHIPYRENKNLTGTARYASINTHLGIEQSRRDDLESLGYVLMYFNLGSLPWQGLKAATKRQKYERISEKKMSTPIEVLCKGYPSEFSTYLNFCRSLRFDDKPDYSYLRQLFRNLFHRQGFSYDYVFDWNMLKFGAARNPEDVDRERREHEREERMGQLRGSATRALPPGPPTGATANRLRSAAEPVASTPASRIQQTGNTSPRAISRADRERKVSMRLHRGAPANVSSSDLTGRQEVSRLAASQTSVPFDHLGK	CKIε phosphorylates β-catenin in vitro	either purified CKIε protein or immunoprecipitated CKIε phosphorylated purified GSK3 protein as well as immunoprecipitated GSK3 protein	CKIε phosphorylates Axin
C-terminally truncated CKIε (protein) MELRVGNKYRLGRKIGSGSFGDIYLGANIASGEEVAIKLECVKTKHPQLHIESKFYKMMQGGVGIPSIKWCGAEGDYNVMVMELLGPSLEDLFNFCSRKFSLKTVLLLADQMISRIEYIHSKNFIHRDVKPDNFLMGLGKKGNLVYIIDFGLAKKYRDARTHQHIPYRENKNLTGTARYASINTHLGIEQSRRDDLESLGYVLMYFNLGSLPWQGLKAATKRQKYERISEKKMSTPIEVLCKGYPSEFSTYLNFCRSLRFDDKPDYSYLRQLFRNLFHRQGFSYDYVFDWNMLKFGAARNPED	–	A truncated mutant, CKIε, where the C-terminus was deleted had intact kinase activity. It was immunoprecipitated using anti-HA antibody and mixed with Immunoprecipitated GSK3.	–
